Publication PMC3614988

Experiments:
[1] = biological target: Rai14 (retinoic acid induced protein 14) (rat (endogenous in testis)) (UniProt Q5U312); test: co-IP; testis lysates (800 µg protein) of rats 12 hr after a single dose of adjudin (50 mg/kg b.w., by gavage); anti-Rai14 IgG as precipitating antibody, blot with anti-actin antibody; compared with 0 hr
[2] = biological target: Rai14 (retinoic acid induced protein 14) (rat (endogenous in testis)) (UniProt Q5U312); test: co-IP; testis lysates (800 µg protein) of rats 48 hr after a single dose of adjudin (50 mg/kg b.w., by gavage); anti-Rai14 IgG as precipitating antibody, blot with anti-actin antibody; compared with 0 hr

Chain of UniProt Q5U312 (Q5U312 whole entry): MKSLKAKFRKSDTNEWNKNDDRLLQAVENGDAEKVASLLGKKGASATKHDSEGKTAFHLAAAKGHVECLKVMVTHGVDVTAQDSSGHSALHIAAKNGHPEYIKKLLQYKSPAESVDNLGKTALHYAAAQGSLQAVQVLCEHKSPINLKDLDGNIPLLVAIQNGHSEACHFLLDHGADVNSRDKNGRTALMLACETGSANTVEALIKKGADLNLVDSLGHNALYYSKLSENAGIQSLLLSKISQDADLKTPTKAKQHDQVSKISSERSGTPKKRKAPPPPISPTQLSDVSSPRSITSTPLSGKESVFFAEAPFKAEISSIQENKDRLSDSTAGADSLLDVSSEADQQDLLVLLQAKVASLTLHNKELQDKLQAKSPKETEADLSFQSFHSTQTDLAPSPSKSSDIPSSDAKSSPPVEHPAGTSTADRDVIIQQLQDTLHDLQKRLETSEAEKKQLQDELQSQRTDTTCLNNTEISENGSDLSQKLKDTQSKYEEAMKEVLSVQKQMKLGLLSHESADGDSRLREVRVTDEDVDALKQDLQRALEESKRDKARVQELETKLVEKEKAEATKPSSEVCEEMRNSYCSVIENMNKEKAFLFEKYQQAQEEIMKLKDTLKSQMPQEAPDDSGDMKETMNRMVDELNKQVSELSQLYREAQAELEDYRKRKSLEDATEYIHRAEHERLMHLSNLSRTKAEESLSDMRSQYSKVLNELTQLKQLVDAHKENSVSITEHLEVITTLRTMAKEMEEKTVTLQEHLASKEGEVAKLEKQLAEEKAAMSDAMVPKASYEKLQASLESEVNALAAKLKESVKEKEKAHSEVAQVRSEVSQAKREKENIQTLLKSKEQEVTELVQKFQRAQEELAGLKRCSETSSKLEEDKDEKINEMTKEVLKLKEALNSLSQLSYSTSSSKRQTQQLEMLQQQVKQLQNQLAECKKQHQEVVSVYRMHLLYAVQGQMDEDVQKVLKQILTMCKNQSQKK

**Q.** What does the source list for “actin (from UniProt P60711 1-375) (natural protein)”?
**A.** percent reduction of the Rai14-actin co-IP against 0 hr [1]: 35%; percent loss of the Rai14-actin co-IP against 0 hr [2]: 90%
